For series [1], the system named is T1, dCas12j-8 D527R D527R;D369A;E567A;D658A (bacteriophage (metagenome)).
T1 sequence: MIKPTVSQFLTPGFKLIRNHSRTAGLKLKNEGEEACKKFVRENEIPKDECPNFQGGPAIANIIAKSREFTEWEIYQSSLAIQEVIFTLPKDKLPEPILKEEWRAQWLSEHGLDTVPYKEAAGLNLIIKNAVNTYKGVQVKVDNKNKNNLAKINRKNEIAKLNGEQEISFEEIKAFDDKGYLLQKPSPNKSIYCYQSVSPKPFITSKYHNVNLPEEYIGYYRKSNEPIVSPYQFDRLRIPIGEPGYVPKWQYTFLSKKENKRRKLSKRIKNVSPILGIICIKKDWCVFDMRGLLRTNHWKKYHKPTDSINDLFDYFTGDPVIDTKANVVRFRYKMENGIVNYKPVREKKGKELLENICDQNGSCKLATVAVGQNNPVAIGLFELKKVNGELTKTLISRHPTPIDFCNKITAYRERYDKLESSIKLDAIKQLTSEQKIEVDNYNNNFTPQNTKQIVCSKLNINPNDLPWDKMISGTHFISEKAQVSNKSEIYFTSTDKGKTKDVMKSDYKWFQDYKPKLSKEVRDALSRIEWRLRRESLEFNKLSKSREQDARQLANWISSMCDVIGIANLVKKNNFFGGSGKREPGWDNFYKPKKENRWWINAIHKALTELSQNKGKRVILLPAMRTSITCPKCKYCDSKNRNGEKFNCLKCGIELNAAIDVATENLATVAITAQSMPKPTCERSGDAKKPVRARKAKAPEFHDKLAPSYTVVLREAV
The note with it: HEK293T cells; panel 1c (compare within a panel only); scale: mean GFP / mean GFP of wild type, printed, no background subtraction.

The test system of series [2] is T2, dCas12j-8 E119R E119R;D369A;E567A;D658A (bacteriophage (metagenome)).
T2 sequence: T1 sequence with E119R, R527D
Particulars: HEK293T cells; panel 1c (compare within a panel only); scale: mean GFP / mean GFP of wild type, printed, no background subtraction.

In series [3] the test system is T3, dCas12j-8 E258R+D527R E258R;D527R;D369A;E567A;D658A (bacteriophage (metagenome)).
T3 sequence: T1 sequence with E258R
Particulars: HEK293T cells; panel 1d (compare within a panel only); scale: mean GFP / mean GFP of wild type, printed, no background subtraction.

For series [4], the system named is T4, dCas12j-8 E419R E419R;D369A;E567A;D658A (bacteriophage (metagenome)).
T4 sequence: T1 sequence with E419R, R527D
The note with it: HEK293T cells; panel 1c (compare within a panel only); scale: mean GFP / mean GFP of wild type, printed, no background subtraction.

Positions count from the first letter of the chain named.

Turning to “CUUUCAAGACUAAUAGAUUGCUCCUUACGAGGAGACACUCCCUAUCAGUGAUAGAG / TTNACTCCCTATCAGTGATAGAG / CTCTATCACTGATAGGGAGTNAA [TetO]”, the binding signal in series [1] turned out to be 1.56; in series [2] it was 1.08; in series [3], 2.83; in series [4], 0.894.

Source of the values: paper PMC12412624, “Engineered Cas12j‐8 is a Versatile Platform for Multiplexed Genome Modulation in Mammalian Cells”.
